Numbering of substitutions follows the chain as printed. Where two headings read alike, the source gives them in different places.
B1: NanA215: recombinant NanA fragment from TIGR4, residues 347-561, covers 2 of 4 Asp boxes; His-tagged form SEQ ID NO:20 (protein)
chain: RIPALLKTDKGTLIAGADERRLHSSDWGDIGMVIRRSEDNGKTWGDRVTITNLRDNPKASDPSIGSPVNIDMVLVQDPETKRIFSIYDMFPEGKGIFGMSSQKEEAYKKIDGKTYQILYREGEKGAYTIRENGTVYTPDGKATDYRVVVDPVKPAYSDKGDLYKGDQLLGNIYFTTNKTSPFRIAKDSYLWMSYSDDDGKTWSAPQDITPMVKAD
B2: NanB: another S. pneumoniae neuraminidase, 43% homology with NanA (protein, UniProt Q54727 30-697, looked up)
Sialidase B: NELNYGQLSISPIFQGGSYQLNNKSIDISSLLLDKLSGESQTVVMKFKADKPNSLQALFGLSNSKAGFKNNYFSIFMRDSGEIGVEIRDAQKGINYLFSRPASLWGKHKGQAVENTLVFVSDSKDKTYTMYVNGIEVFSETVDTFLPISNINGIDKATLGAVNREGKEHYLAKGSIDEISLFNKAISDQEVSTIPLSNPFQLIFQSGDSTQANYFRIPTLYTLSSGRVLSSIDARYGGTHDSKSKINIATSYSDDNGKTWSEPIFAMKFNDYEEQLVYWPRDNKLKNSQISGSASFIDSSIVEDKKSGKTILLADVMPAGIGNNNANKADSGFKEINGHYYLKLKKNGDNDFRYTVRENGVVYNETTNKPTNYTINDKYEVLEGGKSLTVEQYSVDFDSGSLRERHNGKQVPMNVFYKDSLFKVTPTNYIAMTTSQNRGESWEQFKLLPPFLGEKHNGTYLCPGQGLALKSSNRLIFATYTSGELTYLISDDSGQTWKKSSASIPFKNATAEAQMVELRDGVIRTFFRTTTGKIAYMTSRDSGETWSKVSYIDGIQQTSYGTQVSAIKYSQLIDGKEAVILSTPNSRSGRKGGQLVVGLVNKEDDSIDWKYHYDIDLPSYGYAYSAITELPNHHIGVLFEKYDSWSRNELHLSNVVQYIDLEINDLTK
B3: NanA186: recombinant near-N-terminal NanA fragment from TIGR4, residues 157-342; His-tagged form SEQ ID NO:22 (protein)
chain: EFKPDAKAPAFYNLFSVSSATKKDEYFTMAVYNNTATLEGRGSDGKQFYNNYNDAPLKVKPGQWNSVTFTVEKPTAELPKGRVRLYVNGVLSRTSLRSGNFIKDMPDVTHVQIGATKRANNTVWGSNLQIRNLTVYNRALTPEEVQKRSQLFKRSDLEKKLPEGAALTEKTDIFESGRNGNPNKDG
B4: NanA571: recombinant 571-amino-acid central fragment of TIGR4 NanA, corresponding to residues 230-800 of R6 NanA; His-tagged form SEQ ID NO:18 (protein, listed as Streptococcus pneumoniae)
chain: PTAELPKGRVRLYVNGVLSRTSLRSGNFIKDMPDVTHVQIGATKRANNTVWGSNLQIRNLTVYNRALTPEEVQKRSQLFKRSDLEKKLPEGAALTEKTDIFESGRNGNPNKDGIKSYRIPALLKTDKGTLIAGADERRLHSSDWGDIGMVIRRSEDNGKTWGDRVTITNLRDNPKASDPSIGSPVNIDMVLVQDPETKRIFSIYDMFPEGKGIFGMSSQKEEAYKKIDGKTYQILYREGEKGAYTIRENGTVYTPDGKATDYRVVVDPVKPAYSDKGDLYKGDQLLGNIYFTTNKTSPFRIAKDSYLWMSYSDDDGKTWSAPQDITPMVKADWMKFLGVGPGTGIVLRNGPHKGRILIPVYTTNNVSHLDGSQSSRVIYSDDHGKTWHAGEAVNDNRQVDGQKIHSSTMNNRRAQNTESTVVQLNNGDVKLFMRGLTGDLQVATSKDGGVTWEKDIKRYPQVKDVYVQMSAIHTMHEGKEYIILSNAGGPKRENGMVHLARVEENGELTWLKHNPIQKGEFAYNSLQELGNGEYGILYEHTEKGQNAYTLSFRKFNWEFLSKNLISPTEAN
B5: NanA571_E647T: NanA571 with glutamate E647 converted to threonine (protein)
chain: B4 chain with E418T
B6: NanA571_Y752F: NanA571 with tyrosine Y752 converted to phenylalanine (protein)
chain: B4 chain with Y523F

How the values were obtained:
[1] = tested on: TIGR4 Streptococcus pneumoniae; assay type: in vivo; conditions: for protection against nasal carriage / colonization (nasal wash and nasal tissue) / protection from pneumococci reaching (invasion into) the lungs, olfactory bulb, or brain: CBA/N mice, 50 μg intranasal with CTB, TIGR4 challenge, day 7
[2] = Sialidase (neuraminidase) activity of recombinant NanA fragments; assay type: biochemical
Experimental: The decreased activity of a detoxified neuraminidase or a neuraminidase fragment as compared to non-detoxified neuraminidase can be measured by the assay of Lock, et al. (Microb. Pathog. 4; 33-43, 1988). Using the Lock assay, NanA activity in lysates, serum, or blood can be measured using 2′-(4-methyl-umbelliferyl)-α-D-N-acetylyneuraminic acid as the substrate in a enzyme assay (Lock et al. 1988). Ten microliters of substrate are combined with 10 μL of serum and incubated for 5 minutes at 37° C. The reaction is stopped using 0.5 M sodium carbonate. Neuraminidase activity is measured in terms of the amount of 4-methylumbelliferone (MU) released per minute. MU has an excitation wavelength of 366 nm and an emission wavelength of 445 nm. […] Thus, the detoxified neuraminidase or fragment thereof can have no measurable enzymatic activity as compared to the enzymatic activity of a non-detoxified neuraminidase. Further, the detoxified neuraminidase can have protective antibody eliciting activity similar to the non-detoxified neuraminidase.
Such an assay is described in Berry et al., J. Bacterial 1784854-4860 (1996).

[3] = NanB at its optimal pH; cited from earlier work
[4] = MUAN assay of neuraminidase activity; assay type: biochemical; conditions: MUAN assay at 37° C. at pH 7.0
Source text: The total abolishment of activity is consistent with the proposed activities as based on the alignment with structures previously known.

Molecule | protection against nasal carriage / colonization (nasal wash and nasal tissue) [1] | protection from pneumococci reaching (invasion into) the lungs, olfactory bulb, or brain [1] | sialidase activity of the recombinant protein [2] | neuraminidase activity [4] | other results
B1 | no observed statistically significant protection | did not elicit protection | no sialidase activity | – | –
B2 | – | – | – | – | sialidase activity relative to NanA at its pH optimum [3]: about 1/100
B3 | no observed statistically significant protection | did not elicit protection | no sialidase activity | – | –
B4 | solid protection | – | active | 3.9 µmol/min/mg | protection against nasal carriage / colonization (nasal wash and nasal tissue) ([1]; listed as rNanA571): elicited protection; in vivo protection to S. pneumoniae challenge ([1]; figure legend FIG. 11): elicited in vivo protection; sialidase activity of the recombinant protein ([2]; listed as rNanA571): enzymatically active
B5 | – | – | – | Neither mutation exhibited any detectable neuraminidase activity | –
B6 | – | – | – | Neither mutation exhibited any detectable neuraminidase activity | –

Reference: patent publication US8329195B2, “Detoxified pneumococcal neuraminidase and uses thereof” (priority 2007, dated 2012)
